Results from the DeepSol protein solubility set.

assay: soluble on expression in E. coli; label from the status in PepcDB or PDB records

Sequence	soluble on expression in E. coli
MKGNRQRIQPKNIFQAVIDSPLSDQEKEVLTFLYQPIVGANAFSLYWLLLSETTDSEENGSLFHADLISLLDLSCQQLEEACYKLEGIGLLETYKKTDRELGDCYLYYLKAPETAARFFKDEVLALVLFNRVGQRKFDQLVQKFQPHPTKTEGYQNVSASFQEVYAFKEEQIVSEANRLTTIQETFSQKEKSKKISVSTDSFDWHYFVEGLHRLGLQLPEDEASFQEEVYVFHQLYGINELDMVDFASKSFDYYTSRILPKELVRTIHQAFDPDKKPQSTNVVTNKQAQLTVEEQQTYRYNALKMNGFSELDIQMIMDSEKNPPIQYLEALKNSRGGYTTPQERSLVKYLVAKSGLPTSVINILINYVYNIQQQPTLKAEYVNRIANEWGQSGIHSPEKAIEHVRELAKQSQTKQKQRQQNYSGKRQTVRQERLPEWADQPNDETKLSPEEQAELDRQIQEFLNQGGDQ	not soluble
MIGGRDDYPESGFSLPFEPGPRRMQIKRGIRILGIDDSPFSRGDRESNLVGVLMRMDGYVEMMEKEKIQVDGDDVNRAIENLFLYTGRVARIIMMSGISFAGFNICDIDALYQRIRVPVISVFEQGGSVERMIAAIEKHLDDPEKVRILRSLKPVEIRNNGYIIMANLSGIDAQSAQEIITRNTIRGKFPEAIRLADLVGKILGR	not soluble
NAADGIFFPALEQNMMGAVLINENDEVMFFNPAAEKLWGYKREEVIGNNIDMLIPRDLRPAHPEYIRHNREGGKARVEGMSRELQLEKKDGSKIWTRFALSKVSAEGKVYYLALVRDAS	soluble
MTPTLETKYVFTITARIGDVTSAGEIGTGVRRIIPILGGEVKGEGISGQVLPFGADFQIIRPNELIELEAKYAFETDDGAVVYVENVGIRFGPVELLRKLKRGEPVDPKVIYFRTRPRFETGHPNYQWLMQYLFVGSAARHADRVVIDVHQVL	soluble
QYRIIDFKRDKDGIPGRVATIEYDPNRSANIALINYADGEKRYIIAPKNLKVGMEIMSGPDADIKIGNALPLENIPVGTLVHNIELKPGRGGQLVRAAGTSAQVLGKEGKYVIVRLASGEVRMILGKCRATVGEVGN	soluble
PLSQVVRFHASSGTTGKPTVVGYTANDIRNWVESLCRALVSCGVSSDDIMQIAYGYGLFTGGLGFHYAAERLGATVLPISAGNTARQIELMKDLGSTVMACTPSYMIYLAEYASQMGVDIAEDTNLRAGIFGAEPWSEETRKRIEDKTGITAYDVYGTSELSGPLFTECTER	not soluble
QHTEERELKKRLMNTARTVSEMTEVKEALARKKQTEAVRHAVEEIRMINEADYIVVMDMNHIRYTHPVSTSIGKKSEGADEEAAFAEHIYFSEAKGEIGTAVRAFYPVKDQDLNQIGVVLVGKTLPGIADILLHLKRD	not soluble
MSEFDELKYLTGFGNEHATSDPRVPDALPVGQNSPQKCSHGLYAEQLSGTAFTAPRSQNQRSWLYRIRPSVIHRPFEAMKENDQHWTNNFSSIPPNPNQYRWNPFPLPTKEGVTFVDNLYTVCGGGDVISRTGLAIHQFSCNASMEHTAMYNSDGDFLIVPQQGALEITTEFGRLLVNPQEIAVIPQGIRFSVAVRGPSRGYILEVYGTHFQLPDLGPIGANGLANPRDFEAPVAWFEDLDVEFTIINKYQGSWFQAKQGHSPFDVVGWHGNYVPYKYDLKKFMVINTVSFDHCDPSIFTVLTAPSVKHGTAIADFVIFPPRWGCADNTFRPPYYHRNCMSEYMGLITGCYEAKEGGFKPGGGSLHSMMTPHGPDFNCFEMASNADLKPQRVAEGTMSFMFESSLNMAITNWAVYQNVDKDYYKDWQPLKKHFTMPK	not soluble
PGRPTMMISTTAMNTALLQWHPPKELPGELLGYRLQYCRADEARPNTIDFGKDDQHFTVTGLHKGTTYIFRLAAKNRAGLGEEFEKEIRTPEDL	soluble
TMEIPINRTYSCFLEGPEAPKTPACQAAKQAGGTQAMYDWNGINQNPSGDNHQAVVPDGTLCGGGKAEFKGFNLAREDWRTTNIVPDANGNYEFIYKATAPHATKYFKFYVTKNGWNPTQALKWSDLELFGTVNGNPQQDAGKRYHMTLKLPQGKTGKHIIFNVWKRSDSEEAFYSCSDVNFGG	not soluble
MEPEFLYDLLQLPKGVEPPAEEELSKGGKKKYLPPTSRKDPKFEELQKVLMEWINATLLPEHIVVRSLEEDMFDGLILHHLFQRLAALKLEAEDIALTATSQKHKLTVVLEAVNRSLQLEEWQAKWSVESIFNKDLLSTLHLLVALAKRFQPDLSLPTNVQVEVITIESTKSGLKSEKLVEQLTEYSTDKDEPPKDVFDELFKLAPEKVNAVKEAIVNFVNQKLDRLGLSVQNLDTQFADGVILLLLIGQLEGFFLHLKEFYLTPNSPAEMLHNVTLALELLKDEGLLSCPVSPEDIVNKDAKSTLRVLYGLFCKHTQKAHRDRTPHGAPN	soluble
MQTVGSFSEFLDDMVGRYGPRPAIQYRPRYRTLRWSYLELGTHAAKLASLLDEHGVGSGDRVFLSAENSPHWVAAFFAIAARGAVIVPLNPRSPPEQLANLVRSAGPSLVLASPRRRWEGPPLPVVDIERSGRVPSNRPATRTGPARLAEIIYTSGTTGDPKGVMLTHANLLSDLSAVARAIPLAPDDHVLSLVPLFHVYGQMTSLFCPLAAGCPVSYLTTPTTRSVLEALTHTPVTHLVAVPEVLKTMMDRLESRIGRIPGFLWPLLRGRIRARISGSLRTIVCGGAPLDPVVEEKWWALGFQVLQGYGLTETSPVIAANTPQAHRIGSVGKPLDEVELRIASDGEILVKGPMVMAGYFRDPARTEAAFADGWLKTGDAGRLDADGFLYVYGRKRYMILGPGGENVFPEDIEAVLNRTAGVTDCAVVGLESGGRTLVHAVLLADADEARAAAIVAEANRHLAPHQRIVSWSLWPEPDFPRSVTRKVKKDEVLGRLRREPSTQAVPVGRSTPLRLLLAQVAGTEAGALSDDTRLVPDLGLDSLLRIELVARIEEDLGVCLDEIDIGPLTTVADLENLLVRRQDRMPRVDAHPRWSLSPWASRLRPLAQKVFLQWWIAPFCRLRVSGLEHLAALDGPVIFMANHRSYLDSAVASFALPDRFRYRLAIAAATGVLYTRYRWAVPIGELSLNAFPLPSGPDENIRPGLELIGRLLDDGWNVLIFPEGQMNRGGLGIQPLRRGAGTIGVDMGVPVVPLVIEGTEKVMPPGRIVPRAAAPVSVRFGAPLRAGEAEPHGRMLARIEDALRRLLENSPLEHHHHHH	not soluble
MAHHHHHHMDSLYFIGKAQFHQLATHISLYHEDMSDGYKHLSTDAVMAVGLKPHKFTYWNVPMMSGYLGKTVPLDIHGGYVMIDEEKVMPMATSYGMLRYALLTSAVRAKEGGRWRYDFMTMNSTLAIGTAAGLGLLSFGRQRIGWIRRHPIGSVMASFVACLTTTVIARQGIKALGIGIVQAQNSHKRALNCLHCVDCLEDVNTYTLKQIEELKAQQIPQQAGMPPPPEEYVRRFKKGVEMQCRLLETDMEEVRLIRKWAGASLCDVHQHLRDDPMGYKEPHGLVLLASDRARAAERPPLATMPDDKKGIRPAKS	not soluble
MARKTKEDTQATREGILDAAEACFHEHGVARTTLEMIGARAGYTRGAVYWHFKNKSEVLAAIVERVHLPFMQELERTSTDQRDTPVHDLRAVMIHSFIELSEDERLRKTMEIMLRSDASANTRVLTEMQQAGFRDALDRMERALRRARDLGQLREGADPKIAARMLHATVLGVLHGAMVEPELMDLKRDGMLALDMTLAAYVKDGVFVPGTVPEPLPEA	soluble
MSSQNDYQSNGRYDNIYSQIDSEAKMSFSVDVLANIAIELQRGIGHQDRFQRLITTLRQVLECDASALLRYDSRQFIPLAIDGLAKDVLGRRFALEGHPRLEAIARAGDVVRFPADSELPDPYDGLIPGQESLKVHACVGLPLFAGQNLIGALTLDGMQPDQFDVFSDEELRLIAALAAGALSNALLIEQLESQNMLPGDATPFEAVKQTQMIGLSPGMTQLKKEIEIVAASDLNVLISGETGTGKELVAKAIHEASPRAVNPLVYLNCAALPESVAESELFGHVKGAFTGAISNRSGKFEMADNGTLFLDEIGELSLALQAKLLRVLQYGDIQRVGDDRCLRVDVRVLAATNRDLREEVLAGRFRADLFHRLSVFPLSVPPLRERGDDVILLAGYFCEQCRLRQGLSRVVLSAGARNLLQHYSFPGNVRELEHAIHRAVVLARATRSGDEVILEAQHFAFPEVTLPTPEVAAVPVVKQNLREATEAFQRETIRQALAQNHHNWAACARMLETDVANLHRLAKRLGLKD	not soluble
MGSDKIHHHHHHMFTMICPVCEKSVNDMQGLALHFRSGSIHGDGKHASWISAEQIEHGISDSDLSDVLIRIFRPEESLIRWARMEFIAKFYAHPHPFMEAMQKPTVPVLLGYVIEHRFFLKNWIRTLSMVIHSTTSDDAFEYEVENVATEYIGLNGKPSHLELLLRMGEALGMSRKRIMEYSPLPETSQAIEVWYGISNRYSWIDTMGAMHVLELVADRTLVDDGSPIHYFNPEILKGSDYPEAVKNFLMEGYEADVGHAGEALKIVQAATMDDLTTRSIMLRSMDAFYVYLNARMRRARMLEASWGE	not soluble
MGSDKIHHHHHHMPNSYTHYHDENVTDPHLRATGAISVLPLGAHEQHGPHLPFETDTLIAAGIVSRLAAVLPAHLPVSFLPVEPVGYSIEHMDVPGTKTLCYDEAIERWLGIAEAEYEKGVRKFVMLNAHGGNSPLMTIVATEARARFGMLAVATSWTRFGVPADIVKPQDKAVDIHGGDIETSVMLALHPERVVMEKAANFPSRQSDFSQRFSHLRAYGPHAFGWLMSDLNPDGVAGNAAAASAGKGERLISHAVNGLLELLEDVHAFDITLFHNKI	not soluble
MQTQARPPVPQGPRFNHPATPQQVRRPINAPLPGQTAQIQGNRGPQPPKKKKRYADKLIQPKVRELVPESQAYMDLLAFEQKLDSTITRKKIDVQEALKRPQKIKKRLRIYISHTFIAGKEPEKEGDDASVPMWELRVEGRLLDDMQHPTVGANPRPAPKRKFSSFFKSLVIELDKDIYGPDNHLVEWHRTPQTNETDGFQVKRPGDRPVKCTILLLLDYQPMKFKLHPRLAKVLGIAAETRPRIIEALWQYIKTHKLQDPQDRDTINNDLFLEQCFGVSKMRFMEIPQRLHQLLQQPDPLVLNHIIQRPDDGQDKTSACYDIDVELEDPVKQQMANFVHNQTNANDIQLLDQKIFDLVDQINEMKLRRDFFLRFSNEPSGFIKKWVVSQNSDLKTLTESSGDGESDRYATTYSTTDTDEGVSRYMYQKIQQKRAELEQSLGIRNN	not soluble
MGSDKIHHHHHHMKEDSSLTPQEVADLLKITKYTVYEMVKRGELPAYRIGRKIRIEQRDVDAYIKQGKKLKYKDIDTLEASPRTQAARQDYLSTSPGLVICGQDLLLDILGRHLENHSQGCRAFRHNIGSFAGLLQLYQGESDMAGVHLWDSDSESYNIPYVRRMVPGIPTLIIHLAMRQQGFYVARSNPLGIKGWADLTIPGLRFINREPGCGTRVLLDEHLYQMKLDRRKINGYEREETSHLAVASAVARGTADLALGNEKAALQVRGIEFIPLQKERYELVIRKEDLDKAEIRAVLDILNSAAFKSELEGLGDYCLEETGRIVAEI	not soluble
MGSSHHHHHHSSGLVPRGSKITVNPESKAVLAGQFVKLCCRATGHPFVQYQWFKMNKEIPNGNTSELIFNAVHVKDAGFYVCRVNNNFTFEFSQWSQLDVCDIPESFQRSVDGVSESKLQICVEPTSQKLMPGSTLVLQCVAVGSPIPHYQWFKNELPLTHETKKLYMVPYVDLEHQGTYWCHVYNDRDSQDSKKVEIIIDELNNLGHPDNKEQTTDQ	soluble
SNAMSKQLLALNIDGALLRSNGKIHQATKDAIEYVKKKGIYVTLVTNRHFRSAQKIAKSLKLDAKLITHSGAYIAEKIDAPFFEKRISDDHTFNIVQVLESYQCNIRLLHEKYSIGNKKKVNSNLLGKALIHPSDPIFYPVQFVESLSDLLMDEPVSAPVIEVYTEHDIQHDITETITKAFPAVDVIRVNDEKLNIVPKGVSKEAGLALVASELGLSMDDVVAIGHQYDDLPMIELAGLGVAMGNAVPEIKRKADWVTRSNDEQGVAYMMKEYFRMQQRKGFLDKFHMKR	soluble
